The supplement of paper PMC7877785
± gives the uncertainty stated by the source.

Test: self-splicing fitness, log relative to wild type (ln ratio); higher = more splicing; Tetrahymena group I intron in knt gene, E. coli kanamycin selection, DiMSum; sequences stand for … in CUCUCU…GGAGGGAAAAGUUAUCAGGCAUGCACCUGGUAGCUAGUCUUUAAACCAAUAGAUUGCAUCGGUUUAAAAGGCAAGACCGUCAAAUUGCGGGAAAGGGGUCAACAGCCGUUCAGUACCAAGUCUCAGGGGAAACUUUGAGAUGGCCUUGCAAAGGGUAUGGUAAUAAGCUGACGGACAUGGUCCUAACCACGCAGCCAAGUCCUAAGUCAACAGAUCUUCUGUUGAUAUGGAUGCAGUUCACAGACUAAAUGUCGGUCGGGGAAGAUGUAUUCUUCUCAUAAGAUAUAGUCGGACCUCUCCUUAAUGGGAGCUAGCGGAUGAAGUGAUGCAACACUGGAGCCGCUGGGAACUAAUUUGUAUGCGAAAGUAUAUUGAUUAGUUUUGGAGUACUCGUGGUCG
How it was run: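 Colonies from six replicate transformations of E. coli BL21(DE3) were pooled and amplicon-sequenced on an Illumina HiSeq 2500. The library placed an intron with all eight P1ex-region nucleotides randomised inside the knt kanamycin-resistance gene on pET-22b(+), and cells grew overnight at 37°C or 30°C on LB agar with or without 25 μg/mL kanamycin (plus 100 μg/mL carbenicillin, 50 μM IPTG, 0.2% rhamnose). Fitness is the DiMSum error-weighted combination of wild-type-normalised replicate fold changes, kanamycin versus none.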

| Sequence | self-splicing fitness (ln) (30 °C) | self-splicing fitness (ln) (37 °C) |
| --- | --- | --- |
| GAUCAGCAAUAUUACGCGUU | -2.22 ± 0.1 | -1.21 ± 0.12 |
| GGCAAGCAAUAUUACGGCCC | -3.62 ± 0.36 | -1.85 ± 0.3 |
| CUCUAGCAAUAUUACGAUGC | -1.49 ± 0.17 | -3.25 ± 0.33 |
| CGAAAGCAAUAUUACGUUCC | -2.1 ± 0.21 | -0.586 ± 0.22 |
| CUAAAGCAAUAUUACGAGAG | -1.13 ± 0.075 | -0.601 ± 0.099 |
| AGUGAGCAAUAUUACGUUGC | -3.28 ± 0.2 | -2.18 ± 0.24 |
| UUCAAGCAAUAUUACGAACU | -2.74 ± 0.27 | -1.62 ± 0.25 |
| UCACAGCAAUAUUACGCUAU | – | -2.23 ± 0.21 |
| GGAAAGCAAUAUUACGAGCC | -1.45 ± 0.12 | -0.842 ± 0.17 |
| CACCAGCAAUAUUACGUGAG | -3.8 ± 0.16 | -2.26 ± 0.14 |
| AUAUAGCAAUAUUACGCACG | -1.54 ± 0.23 | -0.439 ± 0.21 |
| UUACAGCAAUAUUACGUGAU | -4.22 ± 0.19 | -2.37 ± 0.17 |
| CUUUAGCAAUAUUACGGUGU | -3.52 ± 0.21 | -3.12 ± 0.25 |
| CUAGAGCAAUAUUACGGUCA | -3.55 ± 0.23 | -2.47 ± 0.44 |
| UUUUAGCAAUAUUACGGGAG | -0.728 ± 0.16 | -1.79 ± 0.29 |
| CGUAAGCAAUAUUACGGAGA | -2.79 ± 0.24 | -2.28 ± 0.29 |
| GACUAGCAAUAUUACGGCCC | – | 0.226 ± 0.4 |
| CUAUAGCAAUAUUACGAAUG | -0.481 ± 0.087 | 0.0255 ± 0.12 |
| ACCCAGCAAUAUUACGCACA | -1.56 ± 0.081 | -0.306 ± 0.11 |
| AUUUAGCAAUAUUACGCAGA | -2.07 ± 0.3 | -1.07 ± 0.19 |

| Sequence | self-splicing fitness (ln) (30 °C) | self-splicing fitness (ln) (37 °C) |
| --- | --- | --- |
| CUUGAGCAAUAUUACGCUCU | -2.57 ± 0.5 | -1.13 ± 0.33 |
| UUACAGCAAUAUUACGCUAA | -2.01 ± 0.13 | -0.87 ± 0.11 |
| ACGCAGCAAUAUUACGCUCG | -2.56 ± 0.12 | -1.67 ± 0.16 |
| CAGGAGCAAUAUUACGCUUA | -2.86 ± 0.21 | -2.02 ± 0.21 |
| GUAUAGCAAUAUUACGACCU | -1.21 ± 0.18 | -0.345 ± 0.18 |
| UUACAGCAAUAUUACGUCAC | – | -1.8 ± 0.23 |
| GCUAAGCAAUAUUACGGACU | -1.66 ± 0.12 | -0.74 ± 0.14 |
| CAAAAGCAAUAUUACGCGCU | -3.18 ± 0.14 | -0.642 ± 0.1 |
| CAUUAGCAAUAUUACGAGCG | 0.0198 ± 0.086 | 0.256 ± 0.098 |
| CGCAAGCAAUAUUACGGGCC | -1.55 ± 0.12 | -1.02 ± 0.17 |
| CGACAGCAAUAUUACGCAGC | – | -1.96 ± 0.29 |
| CCACAGCAAUAUUACGUUCG | -1.21 ± 0.048 | -0.208 ± 0.069 |
| GGAGAGCAAUAUUACGGAUC | -1.91 ± 0.12 | -0.404 ± 0.14 |
| GAGCAGCAAUAUUACGCUUC | -2.37 ± 0.28 | – |
| GGAUAGCAAUAUUACGCCUA | -1.45 ± 0.14 | -0.0155 ± 0.17 |
| AUCUAGCAAUAUUACGAAGU | -0.522 ± 0.24 | -0.543 ± 0.31 |
| CUCAAGCAAUAUUACGCGCG | -3.19 ± 0.18 | -2.41 ± 0.29 |
| AAAAAGCAAUAUUACGAGGG | -3.5 ± 0.18 | -1.84 ± 0.16 |
| CAUUAGCAAUAUUACGCAAC | -2.14 ± 0.46 | -2.51 ± 0.3 |
